Experimental data reported in patent US20140220033A1, “Administration of an Anti-Activin-A Compound to a Subject” (Santa Maria Biotherapeutics, Inc., priority 2013, published 2014).

How the values were obtained:
[1] = tested on: G361 human melanoma xenografts; experiment: G361 human melanoma xenograft growth in nude mice; format: in vivo; conditions: sActRIIB 20 mg/kg SC 1x/week from day 14, FIG. 19
Procedure: 5×10^6 G361 melanoma cells and 5637 bladder carcinoma cells, respectively, were inoculated SC into individual athymic nu/nu mice (Harlan Inc). Treatment was initiated 4 days after 5637 implantation and 14 days after G361 implantation, when the tumor volumes reached 130 mm^3−150 mm^3 5637-implanted mice received PBS or activin-A antibody (10 mg/kg, SC, 2×/week). G361-implanted mice received PBS or sActRIIB (20 mg/kg, SC, 1×/week).
For all xenograft experiments, the tumor sizes were measured longitudinally by using an electronic caliper Immediately prior to the 1st dose, the tumor-bearing mice were randomized to ensure even distribution in tumor sizes across different groups. Tumor volumes (mm^3) were calculated as tumor length (mm)×tumor width (mm)×tumor height (mm) Tumor weights were determined by necropsy.

IGFBP-1 = experiment: Western blot of IGFBP-1 in ovarian tumors of inh-KO mice; format: in vivo, mouse; conditions: FIG. 8D
Procedure: (§1) 12-week-old female and 8-week-old male inh-KO mice with fully established ovarian or testicular tumors received a single injection of PBS or sActRIIB (30 mg/kg, SC). As a control, age-matched wild-type littermates received a single injection of PBS. Ovarian and testicular organ weights were determined by necropsy 14 days after the injection.
(§2) Protein extracts were prepared from cell cultures or tissues in T-PER tissue protein extraction reagent (Pierce) containing a mixture of protease inhibitors (Roche). A pool of 50 μg total protein for each group containing equal amounts of protein extract isolated from individual animals was separated by NuPAGE 4-12% Bis-Tris gel (Invitrogen) and transferred to PVDF. The membranes were probed with primary antibodies against total Smad2, p-Smad2 or E-cadherin (1:1000; Cell Signaling), endoglin, osteopontin (1:500; R&D Systems), IGFBP-1, IGFBP-2 (1:500; Abcam) followed by HRP-conjugated secondary antibody (1:2000; Cell Signaling). The membranes were stripped and re-probed with antibody against α-tubulin (1:1000; Cell Signaling).

[2] = tested on: ovarian tumors in inh-KO mice; experiment: Light microscopy (H&E) of ovaries of inh-KO mice; format: in vivo, mouse; conditions: female inh-KO mice; FIG. 7A
Procedure: as §1
Testes and ovaries from inh-KO mice were fixed with Zinc-formalin. Tissue sections were subjected to H&E staining and then examined with a Nikon Eclipse 90i microscope.

Ang-1 = Ang-1 immunostaining in TOV-21G xenograft tumor sections; format: in vivo, mouse; conditions: treated vs untreated sections (strong immunostaining); FIG. 15A
Procedure: (§3) 5×10^6 TOV-21G ovarian cancer cells were implanted subcutaneously into individual female athymic nu/nu mice (Harlan). Treatment was initiated at day 12 after tumor implantation, when the average tumor volume reached approximately 150 mm^3. The mice received PBS, sActRIIB (30 mg/kg, SC, 1×/week) or activin-A antibody (30 mg/kg, SC, 2×/week). In a separate chemotherapy combination experiment, the mice were treated with PBS, sActRIIB (10 mg/kg, SC, 1×/week), 5-FU (50 mg/kg, IP, 3 cycles, 4 daily injections per cycle) or sActRIIB and 5-FU combination at the same doses above.
(§4) Zinc-formalin fixed paraffin tumor tissue sections of 4 μm in thickness were prepared. The sections were subjected to antigen retrieval by microwave 3 min in Unmask solution (Vector H-3300) followed by incubation in 10 μg/ml Proteinase-K for 20 min and in 1% H2O2 in dH2O for 10 min at room temperature. The sections were further incubated in 0.1% Tween-20 in PBS for 3 min to permeabilize the cell membrane and in goat serum for 30 min to block non-specific binding. The sections were then incubated at room temperature with specific primary antibody for 3 hours followed by incubation in biotinylated or fluorescently labeled secondary antibody. […] The immunostained tissue sections were analyzed and photographed using a Nikon Eclipse 90i microscope equipped with DS-Ril camera. […]

CD31 = CD31 immunostaining in TOV-21G xenograft tumor sections; format: in vivo, mouse; conditions: FIG. 15B
Procedure: as §3, §4

[3] = tested on: Smad2 signaling (phospho-Smad2); experiment: Western blot of phospho-Smad2 in tumors of inh-KO mice; format: in vivo, mouse; conditions: increase over WT controls, FIG. 5B
Procedure: as §1, §2

[4] = tested on: DNA fragmentation (apoptosis) in TOV-21G tumors; experiment: TUNEL assay in TOV-21G xenograft tumor sections; format: in vivo, mouse; conditions: FIG. 15C
Procedure: as §3
Cell apoptosis in TOV-21G tumors was analyzed by measuring the amounts of fragmented DNA in the tumor sections using the DeadEnd Fluorometric TUNEL System following the manufacturer's recommended protocols (Promega, G3250). The fluorescein-12-dUTP-labeled DNA was visualized by Nikon fluorescence microscopy.

VEGF = experiment: Serum VEGF in inh-KO mice (ELISA); format: in vivo, mouse; conditions: inh-KO mice with advanced ovarian and testicular tumors; single dose; FIG. 8A
Procedure: as §1
The serum VEGF levels in inh-KO mice were measured by using immunoassay kit (R&D Systems), and the levels of human VEGF and Ang-1 in cell line culture medium were quantified using ELISA kits purchased from Invitrogen (VEGF) and R&D Systems (Ang-1), by following the manufacturers' recommended protocols.

osteopontin = experiment: Western blot of osteopontin in ovarian tumors of inh-KO mice; format: in vivo, mouse; conditions: FIG. 8D
Procedure: as §1, §2

activin-A (βA) mRNA = experiment: Northern blot of activin-A (βA) mRNA in tumors of inh-KO mice; format: in vivo, mouse; conditions: increase over WT controls, FIG. 5A
Procedure: as §1
Total RNA was isolated from individual tissue samples after homogenization in Trizol (Invitrogen). A pool of 10 μg RNA for each group containing equal amounts of total RNA isolated from individual animals was subjected to Northern blot analysis. The northern probes used for βA and Ang-2 were generated by using RT-PCR (Phusion, Biolabs). βA primer set: 5′-CCCTTGCTTTGGCTGAGAGGA-3′ and 5′-TC ACA GGT CGT CGT AGG TCG-3′; Ang-2 primer set: 5′-TGT GCC GGG GAG AAG AG and 5′-TACAGTAGTGGGTTGAGGTTC-3′. To normalize the expression, northern blot membranes were re-probed with β-actin.

B1: sActRIIB: extracellular domain of human activin type-2B receptor fused to IgG2 Fc, expressed in CHO cells; sequence in the 26th table (protein)
chain: ETRWCIYYNANWELERTNQGLERCEGEQDKRLHCYASWRNSSGTIELVKKGCWLDDFNCYDRQECVATEENPQVYFCCCEGNFCNERFTHLPEAGGPEVTYEPPPTAPTGGGGSVECPPCPAPPVAGPSVFLFPPKPKDTLMISRTPEVTCVVVDVSHEDPEVQFNWYVDGVEVHNAKTKPREEQFNSTFRVVSVLTVVHQDWLNGKEYKCKVSNKGLPAPIEKTISKTKGQPREPQVYTLPPSREEMTKNQVSLTCLVKGFYPSDIAVEWESNGQPENNYKTTPPMLDSDGSFFLYSKLTVDKSRWQQGNVFSCSVMHEALHNHYTQKSLSLSPGK
modifications: left off: a dimerising Fc or GST
growth rates and sizes of G361 melanoma xenografts [1]: significantly decreased the growth rates and sizes | IGFBP-1 induction (Western blot) (IGFBP-1): abolished completely | ovarian morphology (light microscopy) [2]: the ovaries were normal in size and contained many recognizable follicles, minimal tumor cell invasion and few hemorrhagic lesions | Ang-1 immunostaining in TOV-21G tumor sections (Ang-1): virtually none | CD31 immunostaining (newly formed microvessels) in TOV-21G tumor sections (CD31): lack of such new microvessels | phospho-Smad2 in tumor tissues (Western blot) [3]: eliminated this increase in phospho-Smad2 | DNA fragmentation (TUNEL) in TOV-21G tumors [4]: profound increases | circulating VEGF levels (VEGF): rapidly lowered the elevated VEGF to WT control levels | osteopontin induction (Western blot) (osteopontin): abolished completely | βA transcripts in the tumors (Northern blot) (activin-A (βA) mRNA): completely blocked
